# Test results as given in patent US7393448B2, “Method of binding a compound to a sensor surface” (Applied NanoSystems B.V., priority 2002, dated 2008).
# B1: SC3: best characterized class I hydrophobin, of Schizophyllum commune (protein, UniProt P16933 25-136, looked up)
# Class I hydrophobin SC3: GGHPGTTTPPVTTTVTVTTPPSTTTIAAGGTCTTGSLSCCNQVQSASSSPVTALLGLLGIVLSDLNVLVGISCSPLTVIGVGGSGCSAQTVCCENTQFNGLINIGCTPINIL
# Assays:
# [1] = Immobilization of electroactive molecules on HYDPt-1-modified electrodes (cyclic voltammetry); type: physicochemical; details: Q10 bound to GCE covered with HYDPt-1
# Description: Electrochemical experiments. Voltammetry experiments were done at 20° C. in three-electrode arrangement, with a calomel reference electrode, platinum foil counter electrode and GE, GCE or TMFE as working electrodes. Eco Chemie AUTO-LAB PGSTAT 30 system was used as the potentiostat with an IBM PC and Eco Chemie software. In order to prepare the TMFE, a silver wire or silver disk electrode precleaned in concentrated perchloric acid was touched to a drop of mercury and cathodically polarized in 0.1 M KOH to obtain a shining and uniform layer of mercury, ca. 1 mm thick. The GE and GCE were polished on Buehler polishing papers and paste, and the GE was cleaned in concentrated nitric acid. The electrodes were coated with the self-assembled hydrophobin upon contact with the surface of solutions containing 2 μg of hydrophobin per 1 ml of 10 mM Tris-HCl buffer. The time of the hydrophobin self-assembly and the conditions of Q0, Q10 and diazobenzene adsorption on hydrophobin-coated electrodes are given below.
# Hydrophobin as a “molecular glue” for immobilizing molecules on the electrode surface. In the present work, we checked the ability of HYDPt-1 to bind through adsorption to different types of electroactive molecules to electrode surfaces. […]
# Curve 1 was recorded after adsorption of the diazobenzene for the same lapse of time, but on the bare GCE. […]
# [2] = Immobilization of cholesterol oxidase on hydrophobin-coated glassy carbon electrode, current response to cholesterol; type: biochemical; details: GCE, phosphate buffer pH 7 (25 mM), cholesterol added
# Text: Immobilization of cholesterol oxidase on a glassy carbon electrode. […] The coated electrode was submerged in a cholesterol oxidase-containing solution (0.5 U/ml) for two hours and rinsed with water.
# To overcome the poor solubility of cholesterol in water, the cholesterol was solubilized in isopropanol with Triton in phosphate buffer (Ropers, M-H. et al., 2001, Phys. Chem. Chem. Phys. 3:240-245). Upon addition of cholesterol, the immobilized cholesterol oxidase catalyzed the reaction and led to formation of hydrogen peroxide. The peroxide produced a small detectable current over the electrode which correlated to the concentration of cholesterol added.
# [3] = cited from earlier work
# [4] = at 50 μg ml^−1; cited from earlier work
molecule,measurement,setting,value
"COC1=C(OC)C(=O)C(C/C=C(\C)CC/C=C(\C)CC/C=C(\C)CC/C=C(\C)CC/C=C(\C)CC/C=C(\C)CC/C=C(\C)CC/C=C(\C)CC/C=C(\C)CCC=C(C)C)=C(C)C1=O [Q10, ubiquinone 50]",stability of ubiquinone reduction and oxidation signals,[1],remained unchanged for several weeks
cholesterol oxidase,enzyme activity upon immobilization on the hydrophobin layer,[2],remaining active
B1,"water contact angle, hydrophilic side of SC3 membrane",[3]; hydrophilic side,36 °
same,"water contact angle, hydrophobic side of SC3 membrane",[3]; hydrophobic side,110 °
same,maximal lowering of the water surface tension (from 72),[4],24 mJ m^−2
